Results published in paper PMC4802042, “A conserved motif in JNK/p38-specific MAPK phosphatases as a determinant for JNK1 recognition and inactivation” (Nature Communications, 2016).

Molecular target: double-phosphorylated JNK1 (phospho-JNK1) (human, double-phosphorylated (sites not stated for this protein))
Experiment: cell-based or functional assay

B1: MKP7-CD (F285D) (domain or fragment, human, UniProt Q9BY84 156-301, looked up)
chain: NIGPTRILPNLYLGCQRDVLNKELMQQNGIGYVLNASNTCPKPDFIPESHFLRVPVNDSFCEKILPWLDKSVDFIEKAKASNGCVLVHCLAGISRSATIAIAYIMKRMDMSLDEAYRFVKEKRPTISPNDNFLGQLLDYEKKIKNQ
Which “phosphatase activity for JNK1 dephosphorylation, relative to wild-type MKP7-CD (Fig. 4a)” value does the source give for B1 here?
The value was about 10 fold.
